Experimental data published in article PMC10349882, “High resolution structures define divergent and convergent mechanisms of archaeal proteasome activation” (Communications Biology, 2023).
Positions count from the first letter of the chain named. In names and notes the source's numbering stands.

B1: T20S β subunit (natural protein, Thermoplasma acidophilum, UniProt P28061 9-211, looked up)
chain: TTTVGITLKDAVIMATERRVTMENFIMHKNGKKLFQIDTYTGMTIAGLVGDAQVLVRYMKAELELYRLQRRVNMPIEAVATLLSNMLNQVKYMPYMVQLLVGGIDTAPHVFSIDAAGGSVEDIYASTGSGSPFVYGVLESQYSEKMTVDEGVDLVIRAISAAKQRDSASGGMIDVAVITRKDGYVQLPTDQIESRIRKLGLIL
notes: Proteasome subunit beta, Thermoplasma acidophilum; Subunit of m1, written alone for the subunit-subunit rows of the structures
B2: T20S α subunit, wild type (natural protein, Thermoplasma acidophilum)
chain: MQQGQMAYDRAITVFSPDGRLFQVEYAREAVKKGSTALGMKFANGVLLISDKKVRSRLIEQNSIEKIQLIDDYVAAVTSGLVADARVLVDFARISAQQEKVTYGSLVNIENLVKRVADQMQQYTQYGGVRPYGVSLIFAGIDQIGPRLFDCDPAGTINEYKATAIGSGKDAVVSFLEREYKENLPEKEAVTLGIKALKSSLEEGEELKAPEIASITVGNKYRIYDQEEVKKFL
notes: Proteasome subunit alpha, Thermoplasma acidophilum; Subunit of m1, written alone for the subunit-subunit rows of the structures; also called proteasome α-subunit
B3: T20S α subunit L81Y (natural protein, Thermoplasma acidophilum)
chain: B2 chain with L81Y
notes: Proteasome subunit alpha, Thermoplasma acidophilum; α subunit of the mutant 20S whose cryo-EM structure is solved here; also called T20S-αL81Y; T20S L81Y

Legend:
[1] = target: the molecule itself; assay: cryo-EM structure; T20S-αL81Y, 0.5 mg/mL in 50 mM Tris pH 7.4, 150 mM NaCl; D7 symmetry; partially open gate
T20S α subunit L81Y = target: B3; assay: as above; settings: both partners purified
[2] = target: B2; assay: cryo-EM structure; WT T20S, 0.5 mg/mL in 50 mM Tris pH 7.4, 150 mM NaCl; D7 symmetry; closed gate; settings: both partners purified
[3] = target: the molecule itself; assay: as above

Binder	binding result [1]	binding result (T20S α subunit L81Y)	binding result [2]	binding result [3]
B1	binds	binds	binds	
B2				binds
B3	binds			
